For one substance, Kd, koff and kon results are on record in paper PMC5029901.

The test concerns the target GST-Gag (HIV-1 Gag fused to GST, from pGEX-6P-3/Gag) (HIV-1). Nature of the test: SPR. (Surface plasmon resonance follows binding to a sensor surface in real time, without labels.)

In general, Kd refers to a measure of binding affinity in units of concentration. The low end stands for tighter binding, the high end for weaker binding. In general, koff refers to the rate constant with which the complex falls apart. By kon is commonly meant a measure of how fast the partners come together. Read a low kon as slower complex formation. In turn, “FLAG-TSG101 (Tumor Susceptibility Gene 101) (from UniProt Q99816 1-390) (natural protein)” returned a Kd of 55.2 nM, a koff of 0.0223 s⁻¹ and a kon of 924000 M⁻¹ s⁻¹.
